Results taken from the supplement of paper PMC9112550, “Optimization of the antimicrobial peptide Bac7 by deep mutational scanning” (BMC Biology, 2022).

System: Escherichia coli TOP10
Test: shrunken log2 fold change of peptide-encoding DNA abundance (4.5 h post-induction vs induction); higher = less antimicrobial activity (less host growth inhibition)
Settings: time post-induction: 4.5 h; library: site-saturation at positions 5, 18, 19, 20
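Also: peptides expressed intracellularly from a pBAD plasmid library in pooled LB shake-flask culture, induced with 0.3% L-arabinose, DNA abundance read by NGS, three biological replicates, DESeq2 with apeglm shrinkage.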

RRIRKRPPRLPRPRPRPYKKPRP
shrunken log2 fold change: -0.201

RRIRKRPPRLPRPRPRPYLCPRP
shrunken log2 fold change: -0.0593

RRIRKRPPRLPRPRPRPYPVPRP
shrunken log2 fold change: -0.801

RRIRKRPPRLPRPRPRPYQPPRP
shrunken log2 fold change: -0.191

RRIRKRPPRLPRPRPRPYRFPRP
shrunken log2 fold change: -0.244

RRIRKRPPRLPRPRPRPYVIPRP
shrunken log2 fold change: -0.112

RRIRKRPPRLPRPRPRPYWPPRP
shrunken log2 fold change: -0.000778

RRIRLRPPRLPRPRPRPAAKPRP
shrunken log2 fold change: 0.602

RRIRLRPPRLPRPRPRPADFPRP
shrunken log2 fold change: -0.0534

RRIRLRPPRLPRPRPRPADHPRP
shrunken log2 fold change: -0.53

RRIRLRPPRLPRPRPRPADKPRP
shrunken log2 fold change: 0.122

RRIRLRPPRLPRPRPRPAENPRP
shrunken log2 fold change: 0.0583

RRIRLRPPRLPRPRPRPAFYPRP
shrunken log2 fold change: 0.903

RRIRLRPPRLPRPRPRPAHDPRP
shrunken log2 fold change: 0.189

RRIRLRPPRLPRPRPRPAHRPRP
shrunken log2 fold change: 0.278

RRIRLRPPRLPRPRPRPAKDPRP
shrunken log2 fold change: -0.136

RRIRLRPPRLPRPRPRPAKVPRP
shrunken log2 fold change: -0.0169

RRIRLRPPRLPRPRPRPALYPRP
shrunken log2 fold change: 0.193

RRIRLRPPRLPRPRPRPAMDPRP
shrunken log2 fold change: 0.113

RRIRLRPPRLPRPRPRPAMQPRP
shrunken log2 fold change: 0.0214

RRIRLRPPRLPRPRPRPANEPRP
shrunken log2 fold change: 0.0458

RRIRLRPPRLPRPRPRPANIPRP
shrunken log2 fold change: -0.501

RRIRLRPPRLPRPRPRPANLPRP
shrunken log2 fold change: -0.00914

RRIRLRPPRLPRPRPRPATHPRP
shrunken log2 fold change: 0.253

RRIRLRPPRLPRPRPRPATRPRP
shrunken log2 fold change: 0.145

RRIRLRPPRLPRPRPRPAVAPRP
shrunken log2 fold change: 0.552

RRIRLRPPRLPRPRPRPAWCPRP
shrunken log2 fold change: 0.094

RRIRLRPPRLPRPRPRPAWKPRP
shrunken log2 fold change: 0.151

RRIRLRPPRLPRPRPRPCDEPRP
shrunken log2 fold change: -0.0824

RRIRLRPPRLPRPRPRPCDVPRP
shrunken log2 fold change: -0.255

RRIRLRPPRLPRPRPRPCFSPRP
shrunken log2 fold change: -0.112

RRIRLRPPRLPRPRPRPCGDPRP
shrunken log2 fold change: -0.00813

RRIRLRPPRLPRPRPRPCHPPRP
shrunken log2 fold change: 0.159

RRIRLRPPRLPRPRPRPCIAPRP
shrunken log2 fold change: -0.185

RRIRLRPPRLPRPRPRPCLQPRP
shrunken log2 fold change: -0.207

RRIRLRPPRLPRPRPRPCMQPRP
shrunken log2 fold change: -0.154

RRIRLRPPRLPRPRPRPCNNPRP
shrunken log2 fold change: -0.0778

RRIRLRPPRLPRPRPRPCPCPRP
shrunken log2 fold change: -0.0536

RRIRLRPPRLPRPRPRPCQNPRP
shrunken log2 fold change: -0.0404

RRIRLRPPRLPRPRPRPCQWPRP
shrunken log2 fold change: -0.0969

RRIRLRPPRLPRPRPRPCRRPRP
shrunken log2 fold change: -0.0846

RRIRLRPPRLPRPRPRPCSDPRP
shrunken log2 fold change: 0.0181

RRIRLRPPRLPRPRPRPCSNPRP
shrunken log2 fold change: -0.47

RRIRLRPPRLPRPRPRPCSPPRP
shrunken log2 fold change: -0.0527

RRIRLRPPRLPRPRPRPCSWPRP
shrunken log2 fold change: -0.0168

RRIRLRPPRLPRPRPRPCVPPRP
shrunken log2 fold change: -0.208

RRIRLRPPRLPRPRPRPCYAPRP
shrunken log2 fold change: -0.0464

RRIRLRPPRLPRPRPRPCYVPRP
shrunken log2 fold change: -1.08

RRIRLRPPRLPRPRPRPDAEPRP
shrunken log2 fold change: 0.326

RRIRLRPPRLPRPRPRPDCCPRP
shrunken log2 fold change: 0.0778

RRIRLRPPRLPRPRPRPDCQPRP
shrunken log2 fold change: 0.153

RRIRLRPPRLPRPRPRPDDAPRP
shrunken log2 fold change: -0.115

RRIRLRPPRLPRPRPRPDDPPRP
shrunken log2 fold change: 0.00153

RRIRLRPPRLPRPRPRPDDQPRP
shrunken log2 fold change: 0.101

RRIRLRPPRLPRPRPRPDDTPRP
shrunken log2 fold change: -0.0691

RRIRLRPPRLPRPRPRPDEHPRP
shrunken log2 fold change: -0.287

RRIRLRPPRLPRPRPRPDELPRP
shrunken log2 fold change: 0.00705

RRIRLRPPRLPRPRPRPDFPPRP
shrunken log2 fold change: 0.24

RRIRLRPPRLPRPRPRPDFYPRP
shrunken log2 fold change: -0.324

RRIRLRPPRLPRPRPRPDGDPRP
shrunken log2 fold change: 0.234

RRIRLRPPRLPRPRPRPDGQPRP
shrunken log2 fold change: 0.00145

RRIRLRPPRLPRPRPRPDHEPRP
shrunken log2 fold change: 0.0172

RRIRLRPPRLPRPRPRPDIGPRP
shrunken log2 fold change: -0.189

RRIRLRPPRLPRPRPRPDKKPRP
shrunken log2 fold change: -0.0455

RRIRLRPPRLPRPRPRPDLTPRP
shrunken log2 fold change: 0.169

RRIRLRPPRLPRPRPRPDLVPRP
shrunken log2 fold change: 0.00214

RRIRLRPPRLPRPRPRPDMPPRP
shrunken log2 fold change: -0.269

RRIRLRPPRLPRPRPRPDNAPRP
shrunken log2 fold change: 0.0803

RRIRLRPPRLPRPRPRPDPKPRP
shrunken log2 fold change: 0.331

RRIRLRPPRLPRPRPRPDPYPRP
shrunken log2 fold change: 0.0541

RRIRLRPPRLPRPRPRPDQCPRP
shrunken log2 fold change: -0.0609

RRIRLRPPRLPRPRPRPDQLPRP
shrunken log2 fold change: -0.0435

RRIRLRPPRLPRPRPRPDRMPRP
shrunken log2 fold change: -0.0414

RRIRLRPPRLPRPRPRPDRTPRP
shrunken log2 fold change: 0.0027

RRIRLRPPRLPRPRPRPDTFPRP
shrunken log2 fold change: 0.0621
